Experimental data as given in patent US20040228836A1.

Biological target: intranuclear antigens consisting of histone DNA complexes (in fixed Raji cells)
Test: 125I-labeled MAb incubated with fixed Raji cells; Scatchard analysis of bound radioactivity

chimeric TNT-1 monoclonal antibody (chTNT-1)
Ka: 2.5e+09 M⁻¹
